# Columns and labels:
# MERTK = MERTK (UniProt Q12866); assay: phosphorylation enrichment, bacterial display (enrichment ratio); higher = better substrate or ligand; peptides without Tyr show the background
# Fer (mouse) = assay: as above
# c-Abl (mouse) = assay: as above
# AncSZ = assay: as above
# Hck = Hck (UniProt P08631); assay: as above
# Fyn = Fyn (UniProt P06241); assay: as above
# EPHB2 = EPHB2 (UniProt P29323); assay: as above
# c-Src = assay: as above
# FGFR3 = FGFR3 (UniProt P22607); assay: as above
# FGFR1 = FGFR1 (UniProt P11362); assay: as above
# EPHB1 = EPHB1 (UniProt P54762); assay: as above
# Fes = Fes (UniProt P07332); assay: as above
# Jak2 = Jak2 (UniProt O60674); assay: as above
# Grb2 SH2 = Grb2 SH2 (UniProt P62993); assay: SH2 binding enrichment of the phosphorylated peptide, bacterial display (enrichment ratio); higher = better substrate or ligand; peptides without Tyr show the background
# c-Src SH2 = assay: as above
# SHP2-C SH2 = assay: as above
# 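Throughout, for SH2 binding enrichment of the phosphorylated peptide, bacterial display: peptide library displayed on the E. coli surface as eCPX fusions, selected cells deep-sequenced, score is each peptide's frequency after selection divided by its frequency in the input.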
# 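Throughout, for phosphorylation enrichment, bacterial display: 11-residue human phosphosite peptides and single-mutation variants displayed on the E. coli surface, counted by deep sequencing, each peptide's frequency after selection divided by its frequency in the unselected input library; frequency after pTyr selection over input frequency; kinase dosed for 20-30% of maximal phosphorylation in three min.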
# Sequence of MERTK (Q12866 whole entry, looked up): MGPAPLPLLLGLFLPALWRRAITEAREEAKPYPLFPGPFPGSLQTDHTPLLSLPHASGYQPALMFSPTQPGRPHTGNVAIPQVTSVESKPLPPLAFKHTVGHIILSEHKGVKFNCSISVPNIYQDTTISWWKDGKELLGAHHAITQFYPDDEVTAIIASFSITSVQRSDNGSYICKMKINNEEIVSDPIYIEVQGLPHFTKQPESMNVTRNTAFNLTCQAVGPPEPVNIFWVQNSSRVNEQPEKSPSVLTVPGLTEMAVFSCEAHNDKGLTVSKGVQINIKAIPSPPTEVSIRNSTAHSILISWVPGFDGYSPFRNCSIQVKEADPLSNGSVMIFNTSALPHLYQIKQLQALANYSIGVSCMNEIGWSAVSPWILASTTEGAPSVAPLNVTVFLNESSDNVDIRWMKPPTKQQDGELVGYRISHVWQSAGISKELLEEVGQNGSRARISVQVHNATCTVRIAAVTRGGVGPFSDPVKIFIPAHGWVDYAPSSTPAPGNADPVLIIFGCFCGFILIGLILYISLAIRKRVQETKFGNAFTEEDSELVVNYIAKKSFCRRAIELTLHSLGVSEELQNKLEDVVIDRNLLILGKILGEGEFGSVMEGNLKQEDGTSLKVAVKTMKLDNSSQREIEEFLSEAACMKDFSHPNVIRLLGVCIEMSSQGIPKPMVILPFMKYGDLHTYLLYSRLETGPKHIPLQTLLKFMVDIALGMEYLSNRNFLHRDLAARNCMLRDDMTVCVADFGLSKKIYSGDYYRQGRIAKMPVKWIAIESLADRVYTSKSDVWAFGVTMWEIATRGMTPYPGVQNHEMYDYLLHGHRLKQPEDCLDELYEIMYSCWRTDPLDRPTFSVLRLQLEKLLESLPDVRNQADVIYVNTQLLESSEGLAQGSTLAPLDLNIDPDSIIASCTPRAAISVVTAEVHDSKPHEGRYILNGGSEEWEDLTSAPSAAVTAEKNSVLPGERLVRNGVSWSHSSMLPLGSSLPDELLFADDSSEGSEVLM
# Sequence of Grb2 SH2 (P62993 whole entry, looked up): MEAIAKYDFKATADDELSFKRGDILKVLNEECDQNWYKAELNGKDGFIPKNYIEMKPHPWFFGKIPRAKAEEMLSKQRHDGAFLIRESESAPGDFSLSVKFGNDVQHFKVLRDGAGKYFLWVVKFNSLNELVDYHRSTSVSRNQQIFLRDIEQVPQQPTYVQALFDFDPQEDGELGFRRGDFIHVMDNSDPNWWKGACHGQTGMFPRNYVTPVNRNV
# Sequence of Fyn (P06241 whole entry, looked up): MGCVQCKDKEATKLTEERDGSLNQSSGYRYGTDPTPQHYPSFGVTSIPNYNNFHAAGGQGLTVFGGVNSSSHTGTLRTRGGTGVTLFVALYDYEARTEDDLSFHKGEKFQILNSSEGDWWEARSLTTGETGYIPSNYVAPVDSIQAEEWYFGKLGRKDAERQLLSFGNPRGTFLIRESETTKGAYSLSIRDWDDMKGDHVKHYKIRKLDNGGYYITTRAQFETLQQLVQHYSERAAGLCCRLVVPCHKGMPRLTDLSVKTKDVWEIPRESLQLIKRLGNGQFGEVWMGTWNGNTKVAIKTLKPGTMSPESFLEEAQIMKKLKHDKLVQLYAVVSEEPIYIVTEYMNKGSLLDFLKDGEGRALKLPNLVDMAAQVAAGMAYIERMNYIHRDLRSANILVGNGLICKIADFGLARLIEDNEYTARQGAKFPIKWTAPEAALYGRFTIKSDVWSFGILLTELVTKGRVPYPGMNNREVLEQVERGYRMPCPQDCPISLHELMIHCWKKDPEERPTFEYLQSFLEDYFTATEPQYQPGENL
# Sequence of Fes (P07332 whole entry, looked up): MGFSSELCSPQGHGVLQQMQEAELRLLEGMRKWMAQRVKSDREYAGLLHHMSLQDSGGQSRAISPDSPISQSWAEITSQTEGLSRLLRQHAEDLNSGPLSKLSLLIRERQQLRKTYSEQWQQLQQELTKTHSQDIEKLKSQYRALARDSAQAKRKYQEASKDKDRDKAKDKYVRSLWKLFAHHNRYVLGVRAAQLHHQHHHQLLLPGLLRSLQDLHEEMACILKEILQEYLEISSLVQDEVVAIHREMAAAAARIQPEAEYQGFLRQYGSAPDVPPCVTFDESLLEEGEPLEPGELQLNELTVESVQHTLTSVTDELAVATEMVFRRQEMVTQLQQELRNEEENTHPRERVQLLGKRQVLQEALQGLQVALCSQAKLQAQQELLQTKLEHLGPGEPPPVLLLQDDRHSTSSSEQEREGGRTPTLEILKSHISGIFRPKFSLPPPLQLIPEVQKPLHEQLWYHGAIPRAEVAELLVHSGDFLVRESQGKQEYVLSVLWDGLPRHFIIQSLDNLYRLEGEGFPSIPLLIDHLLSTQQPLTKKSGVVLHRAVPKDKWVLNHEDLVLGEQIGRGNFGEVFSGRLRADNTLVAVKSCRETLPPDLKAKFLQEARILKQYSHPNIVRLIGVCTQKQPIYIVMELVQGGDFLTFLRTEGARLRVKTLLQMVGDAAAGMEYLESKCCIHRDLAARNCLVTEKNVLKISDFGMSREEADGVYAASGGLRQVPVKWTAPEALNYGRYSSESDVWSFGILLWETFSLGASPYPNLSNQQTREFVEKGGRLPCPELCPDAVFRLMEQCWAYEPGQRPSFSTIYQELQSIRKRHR
# Sequence of FGFR3 (P22607 whole entry, looked up): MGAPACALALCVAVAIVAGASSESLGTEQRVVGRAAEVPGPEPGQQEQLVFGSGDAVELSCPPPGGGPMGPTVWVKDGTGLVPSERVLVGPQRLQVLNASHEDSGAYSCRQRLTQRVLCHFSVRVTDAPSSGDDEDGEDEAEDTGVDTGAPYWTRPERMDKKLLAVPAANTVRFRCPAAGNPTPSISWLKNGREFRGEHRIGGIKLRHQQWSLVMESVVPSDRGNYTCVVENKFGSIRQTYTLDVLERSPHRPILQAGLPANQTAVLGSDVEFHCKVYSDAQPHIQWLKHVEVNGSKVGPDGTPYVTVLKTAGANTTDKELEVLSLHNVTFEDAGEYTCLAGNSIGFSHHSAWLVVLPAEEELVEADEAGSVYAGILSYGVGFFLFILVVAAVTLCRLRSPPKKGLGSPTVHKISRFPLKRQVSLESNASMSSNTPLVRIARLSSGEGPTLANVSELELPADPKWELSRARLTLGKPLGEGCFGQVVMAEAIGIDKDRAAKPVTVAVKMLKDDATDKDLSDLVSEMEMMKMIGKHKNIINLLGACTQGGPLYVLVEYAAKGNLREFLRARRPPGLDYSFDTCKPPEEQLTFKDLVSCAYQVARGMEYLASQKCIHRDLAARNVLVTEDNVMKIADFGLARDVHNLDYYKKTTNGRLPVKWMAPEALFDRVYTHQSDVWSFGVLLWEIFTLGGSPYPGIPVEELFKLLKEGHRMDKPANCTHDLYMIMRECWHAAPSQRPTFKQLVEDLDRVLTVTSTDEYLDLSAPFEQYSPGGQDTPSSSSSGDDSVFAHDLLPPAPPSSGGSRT
# Sequence of EPHB2 (P29323 whole entry, looked up): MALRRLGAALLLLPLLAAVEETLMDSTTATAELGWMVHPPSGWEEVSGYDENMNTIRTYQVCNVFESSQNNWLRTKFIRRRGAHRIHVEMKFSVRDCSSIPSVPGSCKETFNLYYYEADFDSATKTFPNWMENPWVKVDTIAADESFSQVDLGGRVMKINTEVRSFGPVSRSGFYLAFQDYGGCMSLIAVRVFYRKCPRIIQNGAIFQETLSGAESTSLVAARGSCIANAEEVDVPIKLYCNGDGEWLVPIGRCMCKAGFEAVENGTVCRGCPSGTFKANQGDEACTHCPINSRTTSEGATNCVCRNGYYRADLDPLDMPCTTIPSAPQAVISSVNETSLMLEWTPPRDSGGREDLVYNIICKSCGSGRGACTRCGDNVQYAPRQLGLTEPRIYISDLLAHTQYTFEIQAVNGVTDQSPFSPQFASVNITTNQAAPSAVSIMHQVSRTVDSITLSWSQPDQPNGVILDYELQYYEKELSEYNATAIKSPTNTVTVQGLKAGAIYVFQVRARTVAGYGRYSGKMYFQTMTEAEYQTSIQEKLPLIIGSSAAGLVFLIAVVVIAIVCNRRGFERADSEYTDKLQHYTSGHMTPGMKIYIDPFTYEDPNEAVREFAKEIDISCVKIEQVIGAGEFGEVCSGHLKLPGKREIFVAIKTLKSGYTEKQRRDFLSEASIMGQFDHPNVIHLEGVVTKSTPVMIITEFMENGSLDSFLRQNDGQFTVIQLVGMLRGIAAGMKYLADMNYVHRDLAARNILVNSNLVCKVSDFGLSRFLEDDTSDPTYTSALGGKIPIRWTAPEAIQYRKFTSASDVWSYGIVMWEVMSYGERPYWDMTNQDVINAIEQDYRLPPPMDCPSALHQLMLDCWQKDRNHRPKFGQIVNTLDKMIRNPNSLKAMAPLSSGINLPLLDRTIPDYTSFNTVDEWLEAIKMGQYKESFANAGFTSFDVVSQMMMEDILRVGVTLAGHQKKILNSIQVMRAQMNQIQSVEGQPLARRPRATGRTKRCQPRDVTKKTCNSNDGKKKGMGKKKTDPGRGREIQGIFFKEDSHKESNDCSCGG
# Sequence of Hck (P08631 whole entry, looked up): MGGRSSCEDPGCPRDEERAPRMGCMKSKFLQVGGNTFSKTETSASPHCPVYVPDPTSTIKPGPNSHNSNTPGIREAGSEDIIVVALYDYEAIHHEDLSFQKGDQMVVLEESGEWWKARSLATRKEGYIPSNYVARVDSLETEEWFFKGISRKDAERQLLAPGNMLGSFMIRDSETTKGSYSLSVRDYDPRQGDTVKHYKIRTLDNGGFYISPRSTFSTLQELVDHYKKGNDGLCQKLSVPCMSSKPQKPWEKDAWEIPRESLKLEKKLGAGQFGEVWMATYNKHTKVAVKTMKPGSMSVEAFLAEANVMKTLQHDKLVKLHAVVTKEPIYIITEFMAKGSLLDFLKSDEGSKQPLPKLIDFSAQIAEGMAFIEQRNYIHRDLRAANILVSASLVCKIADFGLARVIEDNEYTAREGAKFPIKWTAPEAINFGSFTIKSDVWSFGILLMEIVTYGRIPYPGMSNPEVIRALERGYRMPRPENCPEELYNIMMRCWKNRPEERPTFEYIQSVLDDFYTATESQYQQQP
Sequence,phosphorylation enrichment (MERTK),phosphorylation enrichment (Fer (mouse)),phosphorylation enrichment (c-Abl (mouse)),phosphorylation enrichment (AncSZ),phosphorylation enrichment (Hck),phosphorylation enrichment (Fyn),phosphorylation enrichment (EPHB2),phosphorylation enrichment (c-Src),phosphorylation enrichment (FGFR3),phosphorylation enrichment (FGFR1),phosphorylation enrichment (EPHB1),phosphorylation enrichment (Fes),phosphorylation enrichment (Jak2),SH2 binding enrichment (Grb2 SH2),SH2 binding enrichment (c-Src SH2),SH2 binding enrichment (SHP2-C SH2)
RRFSSYSQMEN [PKP1_Y120],1.06,0.833,0.808,2.29,0.896,1.48,0.89,0.614,1.18,1.34,0.984,2.57,0.657,0.79,0.559,0.774
RRGMPYGGCGD [TGM1_Y312_R315C],0.454,0.409,0.595,0.782,0.659,0.522,0.486,0.486,0.573,0.634,0.551,0.489,0.5,0.544,0.327,0.57
RRIHSYRGHLC [VHL_Y112_W117C],0.828,0.382,0.534,0.774,0.63,0.531,0.619,0.566,0.733,0.503,0.656,1.3,0.821,0.95,0.534,0.478
RRLEPYGENFN [APOA4_Y310_V307L],0.385,0.315,0.371,1.04,0.25,0.281,0.317,0.463,0.493,0.266,0.398,0.732,0.681,0.822,0.527,0.286
RRMLQYLTVND [PPFIBP2_Y663],0.475,0.456,0.691,0.803,0.686,0.501,0.584,0.486,0.632,0.63,0.417,0.862,0.882,0.994,0.51,0.976
RRRLIYRCQVG [NR2E3_Y81],0.735,0.587,0.697,0.776,0.884,0.915,0.983,0.556,0.601,0.854,0.76,1.05,0.679,0.727,0.286,0.566
RRSQSYIPTSG [PLEKHA2_Y185],0.59,0.354,0.497,0.663,0.473,0.707,0.729,0.682,0.455,0.615,0.372,0.709,0.649,0.941,0.529,0.85
RRVPVYGGRGA [QDPR_Y16_L14P],0.779,0.626,1.28,0.969,0.702,0.626,0.512,1.15,0.627,0.762,0.573,0.836,1.36,0.852,0.527,0.774
RSHRSYSCQVM [IGLL1_Y192_R189H],0.526,0.416,0.594,0.609,0.559,0.508,0.512,0.604,0.671,0.637,0.696,0.941,0.57,1.29,1.16,0.993
RTEAQYRFIFM [PTPN11_Y511_Q506R_YF],0.413,0.546,0.765,1.37,0.398,0.312,0.576,0.445,1.03,0.512,0.52,1.23,1.14,0.665,0.409,0.633
RTEAQYRFIYM [PTPN11_Y511_Q506R],0.691,0.794,1.44,1.2,0.635,0.423,0.9,0.754,1.1,0.683,0.724,1.72,1.5,0.702,0.392,0.642
RTTIHYNYMCN [TP53_Y234_C229R],0.901,1.25,1.2,1.81,1.11,1.16,1.13,0.649,1.6,0.892,1.48,2.24,1.57,0.8,0.994,0.603
RTVPLYESPRK [DDB1_Y718],7.82,16,26,1.31,10.5,3.13,26.6,3.79,0.577,0.374,20.7,1.77,0.833,0.898,0.57,1.01
RVVVPYEPPEV [TP53_Y220_S215R],0.468,0.409,0.613,1.01,0.454,0.554,0.505,0.36,0.657,0.631,0.523,0.99,0.892,0.836,1.03,0.925
SADIAYNYRHG [PAH_Y166_F161S],0.329,0.469,0.508,0.488,0.344,0.345,0.378,0.388,0.391,0.362,0.333,0.498,0.435,0.817,0.445,0.699
SAEEDYKADAK [KCNT1_Y876_M877K],0.497,0.465,0.831,1.18,0.536,0.534,0.502,0.513,0.684,0.464,0.635,1.28,1.07,0.874,0.477,0.618
SAGSSYSISSI [PAX5_Y179_G183S],0.492,0.385,0.583,0.65,0.431,0.434,0.451,0.42,0.533,0.368,0.41,0.686,0.697,0.66,0.537,0.554
SARFRYLMAEK [LDHB_Y173],0.397,0.348,0.566,0.695,0.435,0.365,0.467,0.436,0.469,0.352,0.436,0.652,0.692,0.952,0.543,0.508
SDPIVYTLENI [EMR1_Y534_I533V],0.546,2.35,0.873,1.09,0.676,4.76,0.523,4.06,0.755,0.553,0.465,1.69,1.2,0.768,0.563,0.709
SEHLTYLEFKS [RASGRP1_Y215],0.459,0.62,1.09,1.41,5.7,6.61,0.838,5.56,1.16,0.729,1.02,1.58,1.33,0.716,0.409,0.52
SERNNYSRVAN [CWC22_Y797],0.391,0.422,0.51,0.501,0.382,0.347,0.59,0.356,0.456,0.435,0.503,0.557,0.461,0.747,1.46,5.32
SFLFRYADDSF [RAB3C_Y50],0.45,0.414,0.582,1.01,0.525,0.45,0.515,0.434,0.582,0.475,0.545,1.01,0.835,0.988,0.589,1.21
SGGLDYGMVGG [TNRC6B_Y1382_M1380L],0.43,0.476,0.523,0.765,0.76,2.21,0.973,1.88,0.537,0.446,0.527,0.722,0.636,0.775,0.489,0.724
SGIYQYSIAKF [FOXL2_Y83_I84S],9.44,13.4,7.69,1.83,5.59,4.54,2.75,4.12,1.46,1.71,4.84,1.18,1.04,0.994,2.06,11.8
SGLDSYVRSLP [TRAPPC1_Y133_R129G],0.402,0.445,0.426,0.618,0.438,0.424,0.581,0.359,0.48,0.453,0.379,0.651,0.443,0.799,0.492,0.74
SGVNKYSTAFG [GJB3_Y16],0.425,0.394,0.461,0.613,0.409,0.437,0.384,0.434,0.454,0.4,0.375,0.614,0.604,0.84,0.428,0.658
SHLEDYPFDAE [AKR1B10_Y310_N313D],0.369,0.469,0.672,0.986,0.448,0.485,0.554,0.462,0.714,0.467,0.516,1.14,1.3,0.746,0.471,0.842
SHTPSYCDESL [RITA1_Y109],0.419,0.505,0.566,0.806,0.405,0.405,0.459,0.403,0.516,0.502,0.462,0.831,0.62,0.895,0.678,0.706
SIGLGYHKDLQ [NF1_Y1169],0.381,0.368,0.487,0.528,0.424,0.427,0.629,0.458,0.486,0.414,0.34,0.536,0.548,0.776,0.423,0.639

# Source: the supplement of paper PMC10065799, “High-throughput profiling of sequence recognition by tyrosine kinases and SH2 domains using bacterial peptide display” (eLife, 2023)
